Test [1] addresses T1, wildtype human CXCR4 (pcDNA3.1-CXCR4, expressed in HEK293T) (human, UniProt P61073 1-352).
T1 construct: whole, on cells; also called hCXCR4; HEK293T CXCR4
Briefly: competition with [125I]-CXCL12, HEK293T-CXCR4 membranes.

In test [2] the target is CXCR4 mutation library clone 2396 (S178C) (human, UniProt P61073 1-352). The experiment in a line: immunofluorescence on HEK-293T expressing the clone, normalised to wild type.
The target of test [3] is T2, CXCR4 mutation library clone 414 (C218R, E179V, S351T) (human, UniProt P61073 1-352).
T2 chain: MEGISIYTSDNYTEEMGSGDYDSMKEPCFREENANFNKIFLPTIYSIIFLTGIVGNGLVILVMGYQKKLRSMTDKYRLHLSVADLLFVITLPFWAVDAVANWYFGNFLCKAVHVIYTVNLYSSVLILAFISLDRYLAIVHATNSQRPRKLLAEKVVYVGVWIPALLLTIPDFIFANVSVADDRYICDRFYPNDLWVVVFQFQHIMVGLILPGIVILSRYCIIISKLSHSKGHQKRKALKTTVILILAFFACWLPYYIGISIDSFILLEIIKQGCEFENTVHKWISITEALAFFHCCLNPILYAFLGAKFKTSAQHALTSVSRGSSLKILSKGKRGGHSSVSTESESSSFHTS
Described as above.

Test [4] addresses T3, CXCR4 mutation library clone 3728 (D187A, Y157C) (human, UniProt P61073 1-352).
T3 chain: T2 chain with Y157C, V179E, D187A, R218C, T351S
The description is as above.

Test [5] has as its target CXCR4 mutation library clone 2084 (D187V) (human, UniProt P61073 1-352). Described as above.
Test [6] addresses T4, CXCR4 mutation library clone 465 (F189L, S319P, V155E) (human, UniProt P61073 1-352).
T4 chain: T2 chain with V155E, V179E, F189L, R218C, S319P, T351S
The description is as above.

Test [7] deals with CXCR4 mutation library clone 3630 (W195R) (human, UniProt P61073 1-352). The description is as above.
In test [8] the target is CXCR4 mutation library clone 2270 (V196E) (human, UniProt P61073 1-352). The description is as above.
In test [9] the target is T5, CXCR4 mutation library clone 185 (E277A, I245V, N298S) (human, UniProt P61073 1-352).
T5 chain: T2 chain with V179E, R218C, I245V, E277A, N298S, T351S
The test is described as above.

Test [10] concerns the target T6, CXCR4 (Homo sapiens, UniProt P61073).
T6 construct: expressed in transfected cells; host or cells: HEK293T, transient; membrane fraction
Briefly: Competition binding, displacement of [^125I]-CXCL12 on membranes from HEK293T cells transiently expressing CXCR4. How it is done: Iodine incorporation and specific activity were controlled via precipitation of the protein with trichloroacetic acid.
Competition binding assay—Periplasmic fractions were screened in a competition binding assay using membranes from HEK293T cells transiently expressing CXCR4. […] Membranes were then harvested over polyethylenimine (0.5%)-treated Whatman GF/C filter plates and washed three times with ice cold binding buffer containing 500 mM NaCl. Plates were counted by liquid scintillation.
Characterization of Nanobody binding to CXCR4—Following purification, receptor binding to characteristics for 238D2 and 238D4 were investigated on cell membranes from HEK293T cells transiently expressing CXCR4.
Data analysis and presentation—Data are presented as mean±S.E.M. from n independent experiments. Concentration response curves (E/[A] curves) were fitted to the Hill equation using an iterative, least-squares method (GraphPad Prism 4.0, GraphPad Software, San Diego, Calif.) to provide maximal inhibitory effects (Imax), half maximal effective (EC50) or inhibitory concentrations (IC50). Competition binding affinities and functional antagonist affinities (Ki) were calculated using the Cheng and Prusoff equation Ki=IC50/(1+[agonist]/EC50) (Cheng & Prusoff, 1973).

The source of these data is patent publication US20110117113A1, “IMMUNOGLOBULIN SINGLE VARIABLE DOMAIN DIRECTED AGAINST HUMAN CXCR4 AND OTHER CELL ASSOCIATED PROTEINS AND METHODS TO GENERATE THEM” (priority 2009, published 2011).

Positions count from the first letter of the chain named. “Also recorded” adds a separate entry of the source.

T6 sequence (P61073 whole entry): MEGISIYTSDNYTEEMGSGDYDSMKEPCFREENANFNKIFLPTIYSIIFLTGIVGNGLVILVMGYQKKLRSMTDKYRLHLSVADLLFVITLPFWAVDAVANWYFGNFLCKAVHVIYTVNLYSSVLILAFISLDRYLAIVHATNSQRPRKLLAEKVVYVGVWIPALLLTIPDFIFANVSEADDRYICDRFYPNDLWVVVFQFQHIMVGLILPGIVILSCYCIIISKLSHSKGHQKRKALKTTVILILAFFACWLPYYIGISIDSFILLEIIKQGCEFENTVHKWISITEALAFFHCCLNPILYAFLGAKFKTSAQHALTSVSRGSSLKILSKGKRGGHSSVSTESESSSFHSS
T1 sequence (P61073 whole entry): as above

B1: Nanobody 238D4 (VHH)
VHH: EVQLMESGGGLVQAGGSLRLSCAASGRTFNNYAMGWFRRAPGKEREFVAAITRSGVRSGVSAIYGDSVKDRFTISRDNAKNTLYLQMNSLKPEDTAVYTCAASAIGSGALRRFEYDYSGQGTQVTVSS
Consider B1, for which the pKi in test [1] was determined as 8.22 pKi. Besides, the “% immunofluorescence” value in test [2] was 28.2%; in test [3], 8%; in test [4] it was -16.4%; in test [5], -8%; in [6], 12.2%; in test [7], 58.8%. Further, the “% immunofluorescence” value in test [8] stood at 94%; in test [9] it was 69.3%.

B2: 238D2: monovalent anti CXCR4 Nanobody, SEQ ID NO: 2 (protein)
VHH: EVQLVESGGGLVQTGGSLRLSCAASGFTFSSYAMSWVRQAPGKGLEWVSGIKSSGDSTRYAGSVKGRFTISRDNAKNMLYLQMYSLKPEDTAVYYCAKSRVSRTGLYTYDNRGQGTQVTVSS
modifications: Nanobody
Regarding B2, the “functional antagonist affinities (Ki) to CXCR4” value in test [10] (in words, [^125I]-CXCL12 displacement) was “low nanomolar range”. Further, the “[^125I]-CXCL12 Displacem. (%)” value in [10] (maximal displacement, membranes from HEK293T cells transiently expressing CXCR4, mean ± S.E.M.) came out at 93 ± 5%. The “displacement of specifically bound [^125I]-CXCL12 (in words)” value in [10] (membranes from HEK293T cells transiently expressing CXCR4) is recorded as “strongly displacing; also recorded: fully displace”. Further, the “[^125I]-CXCL12 pKi” value in [10] (receptor affinity, membranes from HEK293T cells transiently expressing CXCR4, mean ± S.E.M.) was 8.01 ± 0.12.
